In US20250115680A1 (PROFOUNDBIO US, published 2025):

T1: cynomolgus PTK-7 recombinant protein (cynomolgus monkey, UniProt A0A2K5VNI5 39-712)
T1 construct: also called cynomolgus monkey PTK7 protein; cyano PTK7
T1 sequence: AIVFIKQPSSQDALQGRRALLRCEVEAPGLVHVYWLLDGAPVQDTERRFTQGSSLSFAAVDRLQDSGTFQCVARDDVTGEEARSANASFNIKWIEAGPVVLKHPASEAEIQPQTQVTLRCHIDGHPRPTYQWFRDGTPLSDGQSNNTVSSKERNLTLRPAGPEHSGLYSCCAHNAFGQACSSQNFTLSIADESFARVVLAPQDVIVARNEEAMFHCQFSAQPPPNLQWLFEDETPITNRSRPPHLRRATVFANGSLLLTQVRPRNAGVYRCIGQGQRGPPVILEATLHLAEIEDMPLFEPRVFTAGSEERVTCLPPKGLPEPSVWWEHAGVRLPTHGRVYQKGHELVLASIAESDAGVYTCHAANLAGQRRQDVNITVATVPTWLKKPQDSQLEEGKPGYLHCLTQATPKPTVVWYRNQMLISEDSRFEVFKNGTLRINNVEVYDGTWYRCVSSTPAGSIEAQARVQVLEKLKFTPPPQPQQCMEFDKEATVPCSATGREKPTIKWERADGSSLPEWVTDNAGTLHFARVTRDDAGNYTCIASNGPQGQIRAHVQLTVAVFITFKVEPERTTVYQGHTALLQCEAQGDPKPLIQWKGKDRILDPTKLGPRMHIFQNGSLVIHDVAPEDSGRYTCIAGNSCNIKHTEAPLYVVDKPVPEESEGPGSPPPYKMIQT

T2: human PTK7 on the surface of PTK7-expressing tumor cell lines (human, UniProt Q13308 31-1070)
T2 construct: whole, on cells
T2 sequence (looked up): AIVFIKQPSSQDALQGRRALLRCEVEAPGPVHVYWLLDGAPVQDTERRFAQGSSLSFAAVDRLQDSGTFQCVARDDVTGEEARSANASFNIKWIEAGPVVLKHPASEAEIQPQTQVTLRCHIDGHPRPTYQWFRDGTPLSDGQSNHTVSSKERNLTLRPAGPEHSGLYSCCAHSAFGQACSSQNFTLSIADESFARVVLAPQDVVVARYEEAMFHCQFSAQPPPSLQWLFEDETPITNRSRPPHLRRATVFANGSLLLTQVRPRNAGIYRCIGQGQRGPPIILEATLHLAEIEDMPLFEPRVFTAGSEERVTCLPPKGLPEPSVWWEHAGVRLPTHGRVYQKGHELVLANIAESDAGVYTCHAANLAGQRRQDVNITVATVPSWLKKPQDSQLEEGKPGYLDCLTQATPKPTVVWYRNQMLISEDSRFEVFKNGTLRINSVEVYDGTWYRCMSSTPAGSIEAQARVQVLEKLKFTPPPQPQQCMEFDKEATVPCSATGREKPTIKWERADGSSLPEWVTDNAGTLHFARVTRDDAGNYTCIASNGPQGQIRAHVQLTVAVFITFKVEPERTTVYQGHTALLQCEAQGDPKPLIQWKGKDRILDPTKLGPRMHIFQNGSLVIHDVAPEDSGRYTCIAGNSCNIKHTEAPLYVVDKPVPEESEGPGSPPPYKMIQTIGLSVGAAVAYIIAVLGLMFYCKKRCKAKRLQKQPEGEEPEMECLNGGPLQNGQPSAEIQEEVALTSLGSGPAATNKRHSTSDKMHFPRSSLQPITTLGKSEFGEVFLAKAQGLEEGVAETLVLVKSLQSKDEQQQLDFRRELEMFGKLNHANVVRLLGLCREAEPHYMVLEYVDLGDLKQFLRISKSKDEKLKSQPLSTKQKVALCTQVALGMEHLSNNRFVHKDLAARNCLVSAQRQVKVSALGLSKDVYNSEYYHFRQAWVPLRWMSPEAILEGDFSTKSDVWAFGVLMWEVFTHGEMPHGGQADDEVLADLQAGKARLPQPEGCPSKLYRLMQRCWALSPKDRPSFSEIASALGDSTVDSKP

T3: human PTK-7 recombinant protein (human, UniProt Q13308 31-704, limits assumed)
T3 construct: also called human PTK7 protein
T3 sequence (looked up): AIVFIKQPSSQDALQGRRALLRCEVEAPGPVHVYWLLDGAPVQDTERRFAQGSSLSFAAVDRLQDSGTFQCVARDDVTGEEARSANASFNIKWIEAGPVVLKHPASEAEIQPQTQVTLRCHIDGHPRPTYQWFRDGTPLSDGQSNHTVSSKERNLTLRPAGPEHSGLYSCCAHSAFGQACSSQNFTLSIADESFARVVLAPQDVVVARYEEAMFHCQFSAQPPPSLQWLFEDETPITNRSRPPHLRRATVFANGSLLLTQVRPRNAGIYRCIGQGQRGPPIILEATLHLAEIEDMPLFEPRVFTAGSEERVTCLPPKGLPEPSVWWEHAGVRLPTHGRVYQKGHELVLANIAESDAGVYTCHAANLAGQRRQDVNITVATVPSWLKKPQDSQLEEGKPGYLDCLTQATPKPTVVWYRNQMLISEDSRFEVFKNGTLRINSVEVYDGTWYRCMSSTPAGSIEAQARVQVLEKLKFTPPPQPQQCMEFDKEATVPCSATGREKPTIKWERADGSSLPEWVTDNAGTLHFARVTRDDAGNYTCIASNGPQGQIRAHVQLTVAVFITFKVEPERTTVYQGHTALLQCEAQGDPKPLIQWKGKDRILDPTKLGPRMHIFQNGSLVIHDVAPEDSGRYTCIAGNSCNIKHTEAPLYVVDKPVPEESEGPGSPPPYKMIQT

B1: humanized antibody 2C5 (antibody, V domains shown)
VH: QVQLVQSGAEVKKPGASVKVSCKASGYTFTDYYINWVRQAPGQGLEWMGDINPYSGGPVYNQKFMARVTMTVDKSINTAYMELSRLRSDDTAVYYCARGDYYGSNYNYWGQGTLVTVSS
VL: EIVLTQSPATLSVSPGERATLSCRASQNIGTSIHWYQQKPGQAPRLLIKFASESISGIPARFSGSGSGTEFTLTISSLQSEDIAVYYCQQSNNWPYTFGQGTKLEIK
notes: Only variable regions are tied to 2C5; It was detected with anti-human Fc, so it has a human Fc
B2: humanized antibody 2C8 (antibody, V domains shown)
VH: QIQLVQSGAEVKKPGASVKVSCKASGYTFTTYGMSWVRQAPGQGLEWMGWINTHSGVPTYVDEFKGRVTMTLDTSTSTAYMELSSLRSEDTAVYYCARSPFDYGSRGAWFVYWGQGTTVTVSS
VL: DVVMTQSPDSLAVSLGERATINCRSSQSIVHNSGDTYLEWYQQKPGQPPKLLIYKVSNRFPGVPDRFSGSGSGTDFTLTISSLQAEDLAVYYCFQGSHVPWTFGGGTKVEIK
notes: Only variable regions are tied to 2C8 by name; It was detected with anti-human Fc
B3: humanized antibody 13C4 (antibody, V domains shown)
VH: QVQLVESGGGLVKPGGSLRLSCAASGFAFSTYDMFWIRQAPGKGLEWVSTISSGGGYTYYPGSVKGRFTISRDNAKNSLYLQMNSLRAEDTAVYYCVRPLLRDSYFYFDVWGQGTMVTVSS
VL: EIVMTQSPATLSVSPGERATLSCRASSSVSSSYLHWYQQKPGQAPRLLIFRTSNLASGIPARFSGSGSGTEYTLTISSLQSEDAAVYYCQQYSGYPLTFGQGTKLEIK
notes: Only variable regions are tied to 13C4; It was detected with anti-human Fc

Legend:
[1] = target: T1, cynomolgus PTK-7 recombinant protein; assay: ELISA, plate-coated cynomolgus PTK7 protein, anti-human Fc-HRP detection
Description: (§1) Binding specificity property was tested by ELISA according to a standard protocol. Specifically, 96-well micro-plates were coated with 2 μg/mL human, cynomolgus, mouse, and rat PTK-7 recombinant protein in PBS 100 μL per well, incubated overnight at 4° C. Plates were washed twice by TBS+0.5% Tween20. 200 μL of blocking buffer (2% BSA in PBS) was added to each well and incubated at 37° C. for 2 hours. Plates were washed using the buffer mentioned above. Serially diluted antibodies were added to the ELISA plate with 100 μL per well and incubated for 1 hour at room temperature. Then plates were washed for 3 times. After washing, HRP conjugated anti-human Fc antibody solution (abcam, ab98624, diluted with blocking buffer) was added to the plate with 100 μl per well. The plates were incubated at room temperature for 1 hour and then washed for 3 times. Then TMB solution was added to plates with 100 μl per well, placed at room temperature for 5-15 mins, then the stop solution (2M H₂SO₄) was added with 50 μl per well. Finally, the result was measured by absorbance at A₄₅₀ and A₆₃₀.

[2] = target: T2, human PTK7 on the surface of …; assay: flow cytometry on MDA-MB-453 cells, PE anti-human Fc detection, MFI(PE)
[3] = target: T3, human PTK-7 recombinant protein; assay: ELISA, plate coated with 2 ug/mL human PTK-7 recombinant protein, HRP anti-human Fc detection, OD450
Description: as §1

Binder | EC50 [1] [pM] | EC50 [2] [pM] | EC50 [3] [pM]
B1 | 1660 | 488 | 26.7
B2 | 2610 | 339 | 31.7
B3 | 1140 | 623 | 22.1
